Laboratory results published in patent US20260242478A1 (published 2026).
Where no end group is shown, it is not given here.

B1: Phage-2858 (peptide)
peptide: TQAMCKPAWMCQGF
modifications: cysteine pairing not given here; also: fused to pIII of display bacteriophage, linker and sequence not given here
notes: Clonal phage of the Peptide-180 library; not shown: pIII filament protein of the display bacteriophage
B2: Phage-2857 (peptide)
peptide: LERACVPSWMCTGF
modifications: cysteine pairing not given here; also: fused to pIII of display bacteriophage, linker and sequence not given here
notes: as for B1
B3: Phage-2851 (peptide)
peptide: DMRLCVPEWMCLGL
modifications: cysteine pairing not given here; also: displayed on phage as fusion to pIII, linker and sequence not given here
notes: as for B1
B4: Phage-2859 (peptide)
peptide: WEFVCKPEWMCTGF
modifications: cysteine pairing not given here; also: fused to phage pIII, linker not given here
notes: as for B1
B5: Phage-2863 (peptide)
peptide: FNVMCRPAWMCDFL
modifications: cysteine pairing not given here; also: fused to pIII of display bacteriophage, linker and sequence not given here
notes: as for B1
B6: Phage-2854 (peptide)
peptide: VHIMCKPAWMCLGF
modifications: cysteine pairing not given here; also: fused to pIII of display bacteriophage, linker and sequence not given here
notes: Clonal phage of the Peptide-180 library; the cell for position 10 (c11) is missing in the printed row; not shown: pIII filament protein of the display bacteriophage
B7: Phage-2855 (peptide)
peptide: WEMKCIPEWMCRGF
modifications: cysteine pairing not given here; also: fused to pIII of display bacteriophage, linker and sequence not given here
notes: as for B1
B8: Phage-2853 (peptide)
peptide: MLPLCVPAWMCSGF
modifications: cysteine pairing not given here; also: fused to pIII of display bacteriophage, linker and sequence not given here
notes: as for B1
B9: Phage-2862 (peptide)
peptide: TGAYCVPQWMCSGF
modifications: cysteine pairing not given here; also: fused to phage pIII, linker not given here
notes: as for B1
B10: Phage-2856 (peptide)
peptide: VQRMCEPSWMCFGF
modifications: cysteine pairing not given here; also: fused to pIII of display bacteriophage, linker and sequence not given here
notes: as for B1
B11: Phage-2861 (peptide)
peptide: WDRLCIPAWMCSGF
modifications: cysteine pairing not given here; also: fused to pIII of display bacteriophage, linker and sequence not given here
notes: as for B1
B12: Phage-2860 (peptide)
peptide: EWILCKPAWMCDGL
modifications: cysteine pairing not given here; also: fused to pIII of display bacteriophage, linker and sequence not given here
notes: as for B1
B13: Phage-2852 (peptide)
peptide: VMPLCKPAWMCGGF
modifications: cysteine pairing not given here; also: fused to pIII of display bacteriophage, linker and sequence not given here
notes: as for B1
B14: Phage-2850 (peptide)
peptide: VNIRCEPAWMCMGF
modifications: cysteine pairing not given here; also: fused to phage pIII, linker not given here
notes: as for B1
B15: Phage-2880 (peptide)
peptide: MHLMCKPAWMCAGF
notes: tested as crude clonal phage supernatant
B16: Phage-2879 (peptide)
peptide: VTVICKPQWMCVGF
notes: as for B15
B17: Phage-2881 (peptide)
peptide: GDPVCKPTWMCLGF
notes: as for B15
B18: Phage-2882 (peptide)
peptide: PERMCIPSWMCEVL
notes: as for B15
B19: Phage-2878 (peptide)
peptide: ESARCVPMWMCNGF
notes: as for B15

Target: T1, PSMA Fab
T1 construct: also called Anti-PSMA Fab; 006 PSMA Fab
Assay: clonal phage ELISA; biotinylated PSMA Fab on neutravidin plate, anti-M13 HRP detection
Method: (§1) Clonal phage were harvested as crude supernatants and screened via standard ELISAs. […] Prior to the addition of clonal phage. wells were incubated with blocking buffer and PSMA antigen or blocking buffer alone. Without washing or aspirating, clonal phage supernatants were then added to the wells and incubated for a short time. Wells were then washed followed by detection of bound phage using a horse radish conjugated anti-M13 antibody.

Binder | Phage binding ELISA signal, Anti-PSMA Fab
B1 | 2.44
B2 | 2.44
B3 | 2.46
B4 | 2.43
B5 | 2.42
B6 | 2.44
B7 | 2.44
B8 | 2.44
B9 | 2.43
B10 | 2.44
B11 | 2.43
B12 | 2.43
B13 | 2.46
B14 | 2.46

Target: T1, PSMA Fab
Assay: clonal phage ELISA on captured PSMA Fab; wells pre-incubated with PSMA antigen as competitor
Method: as §1

Binder | Phage binding ELISA signal (Anti-PSMA Fab, with competitor)
B1 | 0.0783
B2 | 0.0938
B3 | 0.0789
B4 | 0.102
B5 | 0.158
B6 | 0.246
B7 | 0.139
B8 | 0.12
B9 | 0.112
B10 | 0.0783
B11 | 0.197
B12 | 0.0639
B13 | 0.134
B14 | 0.108

Target: T2, PSMA Fab
T2 construct: Biotinylated and captured on neutravidin coated plates in the phage ELISA; also called Anti-PSMA Fab; 006 PSMA Fab
Assay: clonal phage ELISA on biotinylated PSMA Fab captured on neutravidin plates, anti-M13 HRP detection;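 note: crude clonal phage supernatants tested, before phage were added, wells were pretreated with PSMA antigen in blocking buffer or with blocking buffer only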
Method: as §1

Binder | Phage binding ELISA signal, Anti-PSMA Fab
SMPRCVPVWMCEGF [Phage-2875] | 2.39
LERVCKPLWMCTGL [Phage-2871] | 2.39
WPQLCVPMWMCAGL [Phage-2869] | 2.4
EPIRCVPQWMCVGF [Phage-2868] | 2.4
IIRHCVPMWMCQGF [Phage-2873] | 2.39
SEFWCVPAWMCEGF [Phage-2870] | 2.4
MSPLCKPVWMCAGF (cysteine pairing not given here; also: displayed on phage by fusion to pIII) [Phage-2865] | 2.4
IDILCRPLWMCNGM [Phage-2872] | 2.39
IETWCVPRWMCEGF [Phage-2864] | 2.42
TSPACVPSWMCVGF [Phage-2866] | 2.4
TLSMCVPTWMCTGF [Phage-2877] | 2.38
VLPMCSPPWMCIGL [Phage-2867] | 2.4
DDIRCKPAWMCMGF [Phage-2876] | 2.38
ETLRCEPMWMCMGF [Phage-2874] | 2.39

Target: T3, 006 PSMA Fab
T3 construct: also called Anti-PSMA Fab
Assay: phage ELISA; biotinylated PSMA Fab on neutravidin plate, blocking buffer alone, anti-M13-HRP detection
Method: as §1

Binder | Phage binding ELISA signal, Anti-PSMA Fab
B15 | 2.38
B16 | 2.38
B17 | 2.38
B18 | 2.38
B19 | 2.38

Target: T2, PSMA Fab
Assay: clonal phage ELISA on captured PSMA Fab pre-incubated with PSMA antigen as competitor, anti-M13 HRP detection;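 note: crude clonal phage supernatants tested by ELISA, wells first treated with blocking buffer plus PSMA antigen, bound phage read out via HRP-linked anti-M13 antibody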
Method: as §1

Binder | Phage binding ELISA signal, Anti-PSMA Fab with PSMA antigen
SMPRCVPVWMCEGF [Phage-2875] | 0.107
LERVCKPLWMCTGL [Phage-2871] | 0.134
WPQLCVPMWMCAGL [Phage-2869] | 0.148
EPIRCVPQWMCVGF [Phage-2868] | 0.0918
IIRHCVPMWMCQGF [Phage-2873] | 0.224
SEFWCVPAWMCEGF [Phage-2870] | 0.0842
MSPLCKPVWMCAGF (cysteine pairing not given here; also: displayed on phage by fusion to pIII) [Phage-2865] | 0.0828
IDILCRPLWMCNGM [Phage-2872] | 0.113
IETWCVPRWMCEGF [Phage-2864] | 0.234
TSPACVPSWMCVGF [Phage-2866] | 0.071
TLSMCVPTWMCTGF [Phage-2877] | 0.115
VLPMCSPPWMCIGL [Phage-2867] | 0.0912
DDIRCKPAWMCMGF [Phage-2876] | 0.127
ETLRCEPMWMCMGF [Phage-2874] | 0.0975

Target: T4, PSMA Fab (biotinylated (site not stated))
T4 construct: also called Anti-PSMA Fab; 006 PSMA Fab
Assay: clonal phage ELISA; biotinylated PSMA Fab on neutravidin plate, blocking buffer alone, anti-M13-HRP detection;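 note: crude clonal phage supernatants added without washing to wells preincubated with PSMA antigen or with blocking buffer alone, briefly incubated, then washed before bound phage detection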

Binder | Phage binding ELISA signal, Anti-PSMA Fab
AGHWCIPMWMCQED [Phage-2679] | 0.874

Target: T3, 006 PSMA Fab
Assay: phage ELISA; biotinylated PSMA Fab on neutravidin plate, wells pre-incubated with PSMA antigen as competitor, anti-M13-HRP detection
Method: as §1

Binder | Phage binding ELISA signal, Anti-PSMA Fab in presence of PSMA antigen
B15 | 0.118
B16 | 0.0878
B17 | 0.09
B18 | 0.1
B19 | 0.0714

Target: T4, PSMA Fab
Assay: clonal phage ELISA; biotinylated PSMA Fab on neutravidin plate, wells pre-incubated with PSMA antigen as competitor, anti-M13-HRP detection
Method: as §1

Binder | Phage binding ELISA signal, Anti-PSMA Fab
AGHWCIPMWMCQED [Phage-2679] | 0.0526
